Measured values published in the nanobody polyreactivity screen of Harvey et al. (2022).

Assay: yeast display, Sf9 membrane polyspecificity reagent, FACS + sequencing; frameworks hold sequencing errors
Summary of the method: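 Synthetic nanobody libraries on Saccharomyces cerevisiae BJ5465 were galactose-induced for 36–48 hours, stained 1 hour at 4 °C with 10% biotinylated, detergent-solubilized Sf9 membrane reagent and enriched on streptavidin microbeads. FACS then separated cells into low and high (top ~1%) gates by anti-HA (expression) and streptavidin (reagent binding) fluorescence. Genes were colony-PCR amplified, MiSeq 2 × 250 sequenced and CDR-length filtered. A clone's polyreactivity label is that of its gate of origin.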

| Sequence | polyreactivity (PSR sort gate) |
| --- | --- |
| QVQLVESGGGLVQAGGSLRLSCAASGSIFSYAMGWYRQAPGKERELVAAISRRGGRTYYADSVKGRFTISRDNEKYTVYLQMNSLKPEDTAVYYCAASGRNRKDGLYEYYYWGQGTQVTVSS | high polyreactivity |
| QVQLVESGGGLVQAGGSLRLSCAASGSIFSYNAMGWYRQAPGKERELFAAITWSGGSTYYADSVKGRFTISRDNAKNTVYLQMNSLKPEDTAVYYCAAKGGYSTGRPTYTKFNYWGQGTQVTVSS | high polyreactivity |
| QVQLVESGGGLVQAGGSLRLSCAASGSIFSYNAMGWYRQAPGKERELVAAINNGGSTYYADSVKGRFTISRDNAKNTVYLQMNSLKPEDTAVYYCNTARRHCQTQGGDYWGQGTQVTVSS | high polyreactivity |
| QVQLVESGGGLVQAGGSLRLSCAASGSIFSYNLMGWYRQAPGKERELVAAITRSCGSTYYADSVKGRFTISRDNAKNTVYLQMNSLKQEDTAVYYCAVGWADQDPFIMDFWGQGTQVTVSS | low polyreactivity |
| QVQLVESGGGLVQAGGSLRLSCAASGSIFSYNVMGGYRQAPGKERELVAVITGSGGSTYYADSVKGRFTISRDNAKNTVYLQMNSLKPEDTAVYYCNKDRGTIPPSGNDYWGQGTLVTVSS | low polyreactivity |
| QVQLVESGGGLVQAGGSLRLSCAASGSIFSYYAMGWYRQAPGKERELVAAISLSTSGTHYADSVKGRFTISRDNAKNTVYLQMNSLKPEDTAVYYCAARQGYPVFLYNSRYGYWGQGTQVTVSS | low polyreactivity |
| QVQLVESGGGLVQAGGSLRLSCAASGSIFSYYAMGWYRQAPGKERELVAAISQNGGSTYYADSVKGRFTISRDNAKNTVYLQMNSLKPEDTAVYYCNAYSVYVRGEYWGQGTQVTVSS | high polyreactivity |
| QVQLVESGGGLVQAGGSLRLSCAASGSIFSYYAMGWYRQAPGKERELVAAISQNGGSTYYADSVKGRFTNSRDNAKNSVSFQMNRLKAEETAVYYCYAYSVYVRGEYWGQGTQVTVSS | high polyreactivity |
| QVQLVESGGGLVQAGGSLRLSCAASGSIFSYYAMGWYRQAPGKERELVAAISRSGASTSYADSVKGRFTISRDNAKNTVYLQMNSLKPEDTAVYYCAKRIYWRGSWGRYYYWGQGTQVTVSS | high polyreactivity |
| QVQLVESGGGLVQAGGSLRLSCAASGSIFSYYAMGWYRQAPGKERELVAAITWSGTRTYYADSVKGRFTISRDNAKNTVYLQMNSLKPEDTAVSYCAADSSIRDAYWGQGTQVTVSS | low polyreactivity |
| QVQLVESGGGLVQAGGSLRLSCAASGSIFSYYAMGWYRQAPGKERELVADISFTGDSTYYADSVKGRFTISRDNAKNTVYLQMNSLKPEDTAVYYCAKDEIIAVYFEYDYWGQGTQVTVSS | low polyreactivity |
| QVQLVESGGGLVQAGGSLRLSCAASGSIFSYYAMGWYRQAPGKERELVASISWNGTSTYYADSVKGRFTISRDNAKNTVYLQMNSLKPEDTAVYYCNAVLSGWGYFYGLNYWGQGTQVTVSS | low polyreactivity |
| QVQLVESGGGLVQAGGSLRLSCAASGSIFSYYDMGWYRQAPGKERELVADISSTGGSTYYADSVKGRFTISRDNAKNTVSIQMNSLKPEDTAVYYCAAEIGYWGQGTQVTVSS | high polyreactivity |
| QVQLVESGGGLVQAGGSLRLSCAASGSIFSYYSMGWYRQAPGKERELVAAITSGDGTNYADSVKGRFTISRDYAKNTVYLQMNSLKPEDTAVYYCAADAVDSYWREDYWGQGTQVTVSS | low polyreactivity |
| QVQLVESGGGLVQAGGSLRLSCAASGSIFSYYVMGWYRQAPGKERELVAAISWSGGSTYYADSVKGRFTISRDNAKNTVYLQMNSLKPEDTAVYYCAAGTYPYYWGQGTQVTVSS | low polyreactivity |
| QVQLVESGGGLVQAGGSLRLSCAASGSIFSYYVMGWYRQAPGKERELVAAISYSGGRTYYADSVKGRFTISRDNAKNTVYLQMNSLKPEDTAVYYCAASRRVGEVSYYYWGQGTQVTVSS | high polyreactivity |
| QVQLVESGGGLVQAGGSLRLSCAASGSIFSYYVMGWYRQAPGKERELVAAITRSGGSTYYADSVKGRFTISRDNAKNTVYLQMNSLKPEDTAVYDCNALWRVRGDYWGQGTQVTVSS | high polyreactivity |
| QVQLVESGGGLVQAGGSLRLSCAASGSIFTCNAMGWYRQAPGKERELVAAISYISGGTYYADSVKGRFTISRDNAKNTVYLQMNSLKPEDTAVYYCAAVVYYYTYHYWGQGTQGTVSS | low polyreactivity |
| QVQLVESGGGLVQAGGSLRLSCAASGSIFTFNAMGWYRQAPGKEREFVAAITRSGGRTYYADSVKGRFTISRDNAKNTVYLQMNSLKPEDTAVYYCAARPRGKYDYWGQGTQVTVSS | high polyreactivity |
| QVQLVESGGGLVQAGGSLRLSCAASGSIFTFYALGWYRQAPGQERELVAAISYSGGSTYYADSVTGRFTISRDNAKITVYLQMNSLKPEDTAVFYCARDYFVDGPGYDYWGQGTQVTVSS | low polyreactivity |
| QVQLVESGGGLVQAGGSLRLSCAASGSIFTFYAMGWYRQAPGKERELVAAISWSGGSTYYADSVKGRFTISRDNAKNTVYLQMNSLKPEDTAVYYCAARYYVYSSRAQYHHYDYWGQGTQVTVSS | high polyreactivity |

| Sequence | polyreactivity (PSR sort gate) |
| --- | --- |
| QVQLVESGGGLVQAGGSLRLSCAASGSIFTFYTMGWYRQAPGKERELVAAISQTGGRTYYADSVKGRFTISRDTAKNTVYLQMNSLKPEDTAVYYCDADYYYDISDWVYEYYYWGQGTQVTVSS | high polyreactivity |
| QVQLVESGGGLVQAGGSLRLSCAASGSIFTFYTMGWYRQAPGKERELVATIRWSVGSTYYADSVKGRFTISRDNAKNTVYLQMNSLKPEDTAVYYCAADSQWSYPDYPGEYAYDYWGQGTQVSVSS | low polyreactivity |
| QVQLVESGGGLVQAGGSLRLSCAASGSIFTGNAMGWYRQAPGKERELVAAIRRSGA | low polyreactivity |
| QVQLVESGGGLVQAGGSLRLSCAASGSIFTGNAMGWYRQAPGKERELVAAISSTGTTNYADSVKGRFTISRDNAKNTVYLQMNSLKPEDTAVYYCARRWYSTWWYGYWGQGTQVTVSS | high polyreactivity |
| QVQLVESGGGLVQAGGSLRLSCAASGSIFTGNAMGWYRQAPGKERELVAAITRTGSTNYADSVKGRFTISRDNAKNTVYLQMNSLKPEDTAVYYCATDRTFTISNYDYWGQGTQVTVSS | low polyreactivity |
| QVQLVESGGGLVQAGGSLRLSCAASGSIFTGNAMGWYRQAPGKERELVASSTTTTDSTYYADSVKGRFTISRDNAKNTVYLQMNSLKPEDTAVYYCAAEYAVAWKYGLYFYFHFDYWGQGTQVTVSS | low polyreactivity |
| QVQLVESGGGLVQAGGSLRLSCAASGSIFTGYAMGWYRQAPGKERELVAAISRSGGRTYYADSVKGRFTISRDNAKYTVYLQMNRLKPEDTAVYYCNSVVSPWNQGYYYWGQGTQVTVSS | high polyreactivity |
| QVQLVESGGGLVQAGGSLRLSCAASGSIFTINTMGWYRPAPGKERELVAAITGSGGITYYADSVKGRFTISRDYAKNTVYLQLNTLKPEDTAVYYCAADYWWTIPEEPQGLGAVDYWGLGTQVTVSS | low polyreactivity |
| QVQLVESGGGLVQAGGSLRLSCAASGSIFTINTMGWYRQAPGKERELVAAITGSGGITYYADSVKGRFTISRDNAKNTVYLQMNSLKPEDTAVYYCAADTGYVHDGYWGQGTQVTVSS | low polyreactivity |
| QVQLVESGGGLVQAGGSLRLSCAASGSIFTKYAMGWYRQAPGKERELLAAITSSSGRTYYADSVKGRFTISRDNAKNTVYLQMNSLKPEDTAVYYCNRGKRVAVSYRPGGYDYWGQGTQVTVSS | high polyreactivity |
| QVQLVESGGGLVQAGGSLRLSCAASGSIFTKYAMGWYRQAPGKERELVAAITWSGGRTYYADSVKGRFTISRDNAKNTVYLQMNSLKPEDTAVYYCAADFFRQGYYYWGQGTQVTVSS | high polyreactivity |
| QVQLVESGGGLVQAGGSLRLSCAASGSIFTLNAMGWYRQAPGKERELVASISKNGGRTYYADSVKGRFTISRDNAKNTVYLQMNCLKPEDTAVYYCAARYYFTPSDGRRYDYWGQGTQVTVSS | high polyreactivity |
| QVQLVESGGGLVQAGGSLRLSCAASGSIFTLYAMGWYRQAPGKERELVATINWSGGSTSYADSVKGRFTISRDNAKNTVYLQMNSLKPEDTAVYYCAADAGSYDALDYSDLLYDYWGQGTQVTVSS | low polyreactivity |
| QVQLVESGGGLVQAGGSLRLSCAASGSIFTNYAMGWDRQAPGKERELVAAIRSSGGSTYYADSVKGRFTISRDNAKNTVYFQLNSLKPEDTAVYYCAARKSYKYPVNSAVGYWGQGTQVTVSS | high polyreactivity |
| QVQLVESGGGLVQAGGSLRLSCAASGSIFTNYAMGWYRQAPGKERELVAAISQSGDTTYNADSVKGRFTISRDNAKNTVYLQMNSLKPEDTAVFFCAAQYYRWFYYWGQGTQVTVSS | high polyreactivity |
| QVQLVESGGGLVQAGGSLRLSCAASGSIFTPNAMGWYRQAPGKERELVAAISWSGGGTYYADSVKGRFTISRDNAKNTVYLQMNSLKPEDTADYYCAVDFRYQDAYEYYWGQGTQVTVSS | low polyreactivity |
| QVQLVESGGGLVQAGGSLRLSCAASGSIFTPNVMGWYRQAPGKERELVAAISQSGGSTFYADSVKGRFTISRDNAKNTVYLQMNSLKPEDTAVYYCAADDGYTYYYWGQGTQVTVSS | low polyreactivity |
| QVQLVESGGGLVQAGGSLRLSCAASGSIFTPYAMGWYRQAPGTEREFVAVISWRVDSTYYADSVKGRFTISRDNAKNTVYLQMNSLKPEDTAVYYCAAKSYLLAPFGSGNRWSRYDYWGQGTQVTVSS | high polyreactivity |
| QVQLVESGGGLVQAGGSLRLSCAASGSIFTPYTMGWYRQAPGKERELVAAISWGADSTYYADSVKGRFTISRDNAKNTVYLQMISLKPEDTAVYYCGDDYWGWSNGYEYWGQGTQVTVSS | low polyreactivity |
| QVQLVESGGGLVQAGGSLRLSCAASGSIFTQNAMGWYRQAPGKERALVAAMSSGGSTNDADSVKGRFTISRDNAKNTVYLQMNSLTPEDTAVDYCAKSIDGWYWRRRRYDYWGQGTQVTVSS | low polyreactivity |
